The target of this assay is soluble ACE2 (sACE2), containing 6xHis tag (R&D Systems) (human, UniProt Q9BYF1 18-740). Nature of the assay: Ni-NTA pull-down with His-tagged sACE2, Western blot (FIG. 7B-C). (In general: In western blotting, separated proteins are transferred to a membrane and probed.)

B1: recombinant protein containing RBD of Middle East respiratory syndrome coronavirus (MERS-CoV) (other)
chain: QAEGVECDFSPLLSGTPPQVYNFKRLVFTNCNYNLTKLLSLFSVNDFTCSQISPAAIASNCYSSLILDYFSYPLSMKSDLSVSSAGPISQFNYKQSFSNPTCLILATVPHNLTTITKPLKYSYINKCSRFLSDDRTEVPQLVNANQYSPCVSIVPSTVWEDGDYYRKQLSPLEGGGWLVASGSTVAMTEQLQMGFGITVQYGTDTNSVCPKL
B1: the binding result is given as “no binding (tested: 20 µg)”.

Source of the values: patent US20160376321A1 (BAYLOR COLLEGE OF MEDICINE, published 2016).
